In the assay the target is T1, Recombinant SARS-CoV-2 N protein His tagged (SARS-CoV-2, UniProt P0DTC9 1-419).
T1 construct: also called nucleocapsid (N) protein; recombinant HIS tagged SARS-CoV-2 N protein
The assay is described as follows: BLI (Octet Red 96E), mAb on anti-mouse Fc biosensor, N protein in solution, global 1:1 fit.

From patent publication US20240059762A1 (SINGLE CELL TECHNOLOGY, published 2024) come the findings set out here.

B1: SCT-Pa01 (antibody, mouse IgG1, kappa, V domains shown)
VH: QVTLKESGPGILQPSQTLSLTCSFDGFSLSTFGMGVGWIRQPSGRGLEWLAHIWWDDDKNYKPALKSRLTISKDTSKNQVFLKIANVDTADTATYYCTRMREDSSDYVYYIMDYWGQGTSVIVAS
VL: QIVLTQSPSIMSASPGEKVTISCSASSSVSYMYWYQQKPGSSPRPWIYRTSNLASGVPARFSGSGSGTSYSLTITSMEAEDAATYYCQLYHSYPPTWTFGGGTKLEIKR
As usually defined, the Kd is the constant that tells how readily two partners part at equilibrium. In general, koff refers to a measure of how fast the partners let go of each other. As a reminder, the kon is the rate constant with which the complex forms. As for B1, the Kd came out at 0.181 nM, the off-rate constant (koff) is 8.01e-05 s⁻¹ and the kon was determined as 442000 M⁻¹ s⁻¹.

B2: SCT-Pa04 (antibody, mouse IgG1, kappa, V domains shown)
VH: EVQLQQSGPELVKPGASVKMSCKASGYSFTSYVMHWVKQKPGQGLEWIGYINPYNDGTKYNEKFKGKATLTSDKSSSTAFMDLSSLTSDDSAVYYCSRDDYSNPPFAYWGQGTLVTVSA
VL: SIVMTQTPKFLLVSAGDRITITCKASQSVSNNVAWYQQKPGQSPTLLISYASNRFTGVPDRFTGSGYGTDFTFTISIVQAEDLAVYFCQQDYDSPYTFGGGTKLEIKR
On to B2, for which the Kd was 0.0328 nM, the off-rate (koff) is 1.64e-05 s⁻¹ and the kon came out at 498000 M⁻¹ s⁻¹.

B3: SCT-Pa02 (antibody, mouse IgG1, kappa, V domains shown)
VH: QMQLKQSGPGLVQPSQSLSITCTVSGFSLTSYGVHWVRQSPEKGLEWLGVIWSGGGTDYNAAFISRLSISKDNSKSQVFLKMSSLQTDDTAIYYCARGAYYSLDYWGQGTTLTVSS
VL: DIVLTQSPASLAVSLGQRATISCRASESVDYDGDNYMNWYQQKPGQSPKLLIYATSNLESRIPARFSGSGSGTEFTLNIHPVEEEDAATYYCLQSYDVPYTFGSGTKLEMKR
On to B3, for which the Kd amounted to 1 nM, the koff came out at 0.00073 s⁻¹ and the on-rate constant (kon) is 730000 M⁻¹ s⁻¹.

B4: SCT-Pa17 (antibody, mouse IgG1, kappa, V domains shown)
VH: QVQLQQPGAELVKPGASVKLSCKASGYAFTSSWINWVKRRPGQGLEWIGNVYPRSSSPNYNEKFKGKATLTVDTSSSTAYMQLSSLTSDDSAVYFCARGYGSYWYFDVWGAGTSVTVSS
VL: DIQMTQSSSSFSVSLGDRVTITCKASEDIYNRLAWYQQKPGNAPRLLISGATTLETGVPSRFSGSGSGKDYALSITSLQTEDVSTYYCQEYWSLSPTFGGGTKLEIKR
In the case of B4, the dissociation constant Kd is 0.939 nM, the koff came out at 0.000461 s⁻¹ and the kon amounted to 491000 M⁻¹ s⁻¹.

B5: SCT-Pa07 (antibody, mouse IgG1, kappa, V domains shown)
VH: EVQLQQSGPELVKPGDSVKMSCKASGYTFTDYYMDWVKQSHGKSLEWIGYIYTNNGDTNYNQKFKGKATLTVDKSSSTAYMELHSLTSEDSAVYYCASLYYSNFFDSWGQGTTLTVSS
VL: ENVLTQSPAIMSATLGEKVTVSCRARSNVKYMYWYQQKSGASPKLLIYYTSNLASGVPARFSGSGSGTSYSLTISSVEAEDAATYYCQQFTSSPFTFGSGTKLEIKR
As for B5, the Kd was determined as 0.188 nM, the dissociation rate constant (koff) was 8.63e-05 s⁻¹ and the kon was found to be 458000 M⁻¹ s⁻¹.

B6: SCT-Pa14 (antibody, mouse IgG1, kappa, V domains shown)
VH: EVQLQQSGAELVSPGASVKLSCTASGFNIKDDYMHWVKQRPEQGLEWIGRIDPANGNTKYAPKFQDKATITADTSSNTAYLQLSSLTSEDTAVYYCFYSFYIPYTMDFWGQGTSVTVSS
VL: ENVLTQSPAIMSATLGEKVTMSCRASSNVKYMYWYQQKSGASPKLWIYYTSNLTSGVPARFSGSGSGTSYSLTISSVEAEDAATYYCQQFTSSPYTFGSGTKLEIKR
With B6, the Kd amounted to 0.128 nM, the koff worked out at 7.23e-05 s⁻¹ and the association rate constant (kon) was found to be 566000 M⁻¹ s⁻¹.

B7: SCT-Pa15 (antibody, mouse IgG1, kappa, V domains shown)
VH: QVQVKQSGPGLVQPSQSLSITCTVSGFSSTSYAIHWVRQSPGKGLEWLGVIWSGGTTDYNAAFISRLSFSKDNSKSQLFFKMNSLQADDTAMYYCARGNYYGMDYWGQGTSVTVSS
VL: DIVVTQSPASLAVSLGQRATISCRASESIDYDGDSYVNWYQQKPGQPPNLLIYAASNLESGIPARFSGGGSGTDFTLTIHPVEEEDAATYYCLQSYETPWTFGGGTKLEIKR
For the molecule B7, the Kd was 0.994 nM, the koff was 0.000862 s⁻¹ and the kon was 868000 M⁻¹ s⁻¹.

B8: SCT-Pa06 (antibody, mouse IgG1, kappa, V domains shown)
VH: QVTLKESGPGILQPSQTLSLTCSFSGFSLSTYGMGVGWIRQPSGKGLEWLANIWWNDDKNYNSALKSRLTISKDTSNNQLFLRISSVDTADTATYFCAQIPAYYSNSWFAYWGHGTLVTVSA
VL: ENVLTQSPAIMAASPGEKVTMTCSASSSVSSGNFHWYQQKPGTSPKLWIYRTSNLASGVPARFSGSGSGTSYSLTISSMEAEDAATYYCQQWSGYPYTFGSGTKLKIKR
Take B8: the Kd came to 0.504 nM, the off-rate (koff) was determined as 0.00017 s⁻¹ and the kon was determined as 337000 M⁻¹ s⁻¹.

B9: SCT-Pa05 (antibody, mouse IgG1, kappa, V domains shown)
VH: EVQLQQSGAELVKPGASVKLSCTTSGFNIKDYYFHWVKQRTEQGLEWIGRIDPEDGETEYAPKFRDKATITADTSSNTAYLQLSSLTSEDTAIYYCARSLYYWGQGTTLTVSS
VL: DIVMTQSPSSLSVWAGEKVTMSCKSSQSLLNSGDQKNYLTWYQQKPGQSPKLLIYETSTRDYGVPDRFTGSGSGADFTLTISSVQAEDLAVYYCLNDLTYPLTFGAGTKLELKR
For B9, the dissociation constant Kd amounted to 0.289 nM, the koff was 0.00018 s⁻¹ and the on-rate (kon) is 624000 M⁻¹ s⁻¹.

B10: SCT-Pa03 (antibody, mouse IgG1, kappa, V domains shown)
VH: QVQLKQSGAELVRPGASVKLSCKASGYTFTDYYINWVKQRPGQGLEWIARIYPGNNYAYYDEKFKGKATLTAEKSSSTAYMQLSSLTSEDSAVYFCAKDDGYRFAYWGQGTLVTVSA
VL: DIQMTQSSSYLSVSLGGRVTITCKASDHINNWLAWYQQKPGNAPRLLISGATSLETGVPSRFSGSGSGKDYTLSITSLQTEDVATYYCQQYWSTPPTFGGGTKLEIKR
For B10, the Kd turned out to be 2.78 nM, the off-rate (koff) came out at 0.000597 s⁻¹ and the kon was 215000 M⁻¹ s⁻¹.

B11: SCT-Pa19 (antibody, mouse IgG1, kappa, V domains shown)
VH: QVQLQQPGAELVRPGSSVKLSCKASGYTFTNYWMLWVKQRPMQGLEWIGSIDPSDSETHYNQKFKDKATLTVDKSSSTAYMRLGSLTSEDSAVYYCARDSYGWYFDVWGTGTTVTVSS
VL: DIVMTQSQKFMSTSVGDRVSVTCKASQNVGSNVAWYQQKSGQSPKALIYSASYRYSGVPDRFTGSGYGTDFTLTISNVQSEDLAEYFCQQYNNYPLTFGAGTKLELKR
B11: the Kd came to 0.0283 nM, the koff is 1.26e-05 s⁻¹ and the on-rate (kon) worked out at 444000 M⁻¹ s⁻¹.

B12: SCT-Pa09 (antibody, mouse IgG1, kappa, V domains shown)
VH: QVQLQQPGAELVKPGTSVRLSCQASGYTFTSSWIHWVKQRTGQGLEWIGEISLTNGDINYNEKFTSKATLTVDKSSSTAYMQLSSLTSEDSAVYYCTIIPDGYSLYWYFDVWGAGTTVTVSS
VL: QIVLSQSPPILSASPGARVTMTCRASSSVNYMHWYQQKPGSSPKPWIYATSNLASGVPVRFSGSGSGTSYSLTISRVEAEDAATYYCQQWSSNPPTFGGGTKLEIKR
Consider B12, for which the Kd was 0.0531 nM, the koff is 2.67e-05 s⁻¹ and the on-rate (kon) came out at 503000 M⁻¹ s⁻¹.

B13: SCT-Pa08 (antibody, mouse IgG1, kappa, V domains shown)
VH: QVQLHQSGAELVKPGASVKLSCKASGYTFTEYSIHWVKQRSGQDLEWIGWFNPGTGSIKYNEKFKDKATLTADKSSSTVYMELSRLTSEDSAVYFCARHGGRWVIQWNFDVWGTGTTVTVSS
VL: DIVMSQSPSSLAVSVGEKVTMSCKSSQNLLYSSNQKNFLAWYQQRPGQSPKLLIYWASTRESGVPDRFTGSGTGTDFTLTISSVKAEDLAVYYCQQYYRYPFTFGSGTKLEIKR
Turning to B13, the Kd is 0.897 nM, the off-rate constant (koff) is 0.000772 s⁻¹ and the kon was found to be 860000 M⁻¹ s⁻¹.

B14: SCT-Pa10 (antibody, mouse IgG1, kappa, V domains shown)
VH: QVQLQQSGPELVKPGASVKISCKASGYAFSTSWMNWMKQRPGKGLEWIGRIYPGDGETNYNGKFKGKATLTADKSSSTAYMQLSSLTSDDSAVYFCARGANGDYLFYLDYWGQGTTLTVSS
VL: DIQMTQTTSSLSASLGDRVTISCSASQDISDFLNWYQQKPDGTVKLLIYYTSSLHSGVPSRFSGSGSGTDYSLTINNLEPEDIATYYCQQYSKLPYTFGGGTKLEIRR
B14: the dissociation constant Kd stood at 0.335 nM, the off-rate (koff) is 0.000247 s⁻¹ and the kon was found to be 738000 M⁻¹ s⁻¹.

B15: SCT-Pa12 (antibody, mouse IgG1, kappa, V domains shown)
VH: QVQLQQSGAELARPGASVKLSCKASGYSFTSYGISWVKQRTGQGLEWIGDIYPRSGNTDYNEKFKGKATLTADKSSSTANMQLSSLTSEDSAIYFCARSGDGYLYAMDYWGQGTSVTVSS
VL: DIQMTQTTSSLSASLGDRVTISCRASQDISNYLNWYQQKPDGTVKLLIYYTSRLHSGVPSRFSGSGSGTDYSLTISNLEPEDIAPYYCQQYSKLPYTFGSGTKLEIKR
For B15, the dissociation constant (Kd) was 0.649 nM, the dissociation rate constant (koff) amounted to 0.000278 s⁻¹ and the kon came out at 428000 M⁻¹ s⁻¹.

B16: SCT-Pa18 (antibody, mouse IgG1, kappa, V domains shown)
VH: QVQLQQPGAELVKPGASVKLSCKASGYTFTSYWMQWVKQRPGQGLEWIGEIAPSDSYTNYNQKFKGKATLTVDTSSSTAYMQLSSLTSEDSAVYYCAGGDYYGYDVKTWFAYWGQGTLVTVSA
VL: DIQMTQTTSSLSASLGDRVTISCSASQDISNYLNWYQQKPDGTVKLLIYYTSSLHSGVPSRFSGSGSGTGYSLTISNLEPEDIATYYCQQYSKLPYTFGGGTKLEIKR
With B16, the dissociation constant Kd came out at 0.228 nM, the off-rate (koff) is 0.000127 s⁻¹ and the kon was determined as 557000 M⁻¹ s⁻¹.

B17: SCT-Pa16 (antibody, mouse IgG1, kappa, V domains shown)
VH: QVQLQQPGTELVKPGASVKLSCKASGYTFTSYWMHWVKQRPGQGLEWIGSVNPSNGGANYNEKFKNKATLTVDKSSSTAYMQLSSLTSEDSAVYYCARRNGFPYYFDYWGQGTTLTVSS
VL: DIVMTQSQKFVSTSVGDRVSVTCKASQNVGTNVVWYQQKPGQSPKPLIYSASYRYSGVPDRFTGSGSGTDFTLTISNVQSEDLADYFCHQYNSSPLTFGVGTKLELKR
B17: the Kd is 1.49 nM, the dissociation rate constant (koff) stood at 0.00154 s⁻¹ and the association rate constant (kon) was determined as 1.04e+06 M⁻¹ s⁻¹.

B18: SCT-Pa11 (antibody, mouse IgG1, kappa, V domains shown)
VH: EVQLQQSGPELVKPGASVKMSCKASGYTFTSYVIHWVKQKPGQGLEWIGYINPYNDGTEYNEKFKGKATLTSDKSSSTAYMELSSLTSEDSAVYYCSRDDYNNRFAYWGPGTLVTVSA
VL: DIQMTQSPASLSASVGETVTITCRPSENIYSYLAWYQQKQGKSPQLLVYNAKTLVEGVPSRFSGSGSGTQFSLKINSVQPEDCGSYYCLHHFGTPWTFGGGTILEIKR
On to B18, for which the Kd amounted to 0.111 nM, the koff turned out to be 5.75e-05 s⁻¹ and the kon was 517000 M⁻¹ s⁻¹.
